T1: Activin A (UniProt P08476 311-426)
T1 construct: also called ActA
T1 sequence (looked up): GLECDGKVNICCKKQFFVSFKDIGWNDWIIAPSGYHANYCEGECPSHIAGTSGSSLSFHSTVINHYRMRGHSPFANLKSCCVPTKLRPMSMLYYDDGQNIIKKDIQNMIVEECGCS

T2: Activin B (UniProt P09529 293-407)
T2 sequence (looked up): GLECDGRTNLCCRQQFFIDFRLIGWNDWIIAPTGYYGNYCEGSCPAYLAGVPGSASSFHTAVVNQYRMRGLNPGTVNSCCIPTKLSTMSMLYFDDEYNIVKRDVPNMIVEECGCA

T3: Growth and Differentiation Factor-8 (GDF8) (UniProt O14793 267-375)
T3 construct: also called myostatin
T3 sequence (looked up): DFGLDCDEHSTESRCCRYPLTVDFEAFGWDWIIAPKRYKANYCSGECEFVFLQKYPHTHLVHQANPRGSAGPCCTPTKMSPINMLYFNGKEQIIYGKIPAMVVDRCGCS

B1: ActRIIB(20-134)-hFc (Fc fusion)
chain: GRGEAETRECIYYNANWELERTNQSGLERCEGEQDKRLHCYASWRNSSGTIELVKKGCWLDDFNCYDRQECVATEENPQVYFCCCEGNFCNERFTHLPEAGGPEVTYEPPPTAPT
notes: not shown: linker (if any) and human Fc (hFc)
B2: ActRIIB(L79 25-131)-hFc (Fc fusion)
chain: ETRECIYYNANWELERTNQSGLERCEGEQDKRLHCYASWRNSSGTIELVKKGCWLDDFNCYDRQECVATEENPQVYFCCCEGNFCNERFTHLPEAGGPEVTYEPPPT
notes: also called ActRIIB(25-131)-hFc; not shown: linker (if any) and human Fc (hFc)
B3: Soluble ActRIIB-Fc WT (64R) (Fc fusion)
chain: GRGEAETRECIYYNANWELERTNQSGLERCEGEQDKRLHCYASWRNSSGTIELVKKGCWLDDFNCYDRQECVATEENPQVYFCCCEGNFCNERFTHLPEA
notes: whole entry named; not shown: linker (if any) and Fc
B4: Growth and Differentiation Factor-11 (GDF11) (ligand, UniProt O95390 299-407, looked up)
chain: NLGLDCDEHSSESRCCRYPLTVDFEAFGWDWIIAPKRYKANYCSGQCEYMFMQKYPHTHLVQQANPRGSAGPCCTPTKMSPINMLYFNDKQQIIYGKIPGMVVDRCGCS
notes: also called BMP11
B5: Soluble ActRIIB-Fc +15tail (Fc fusion, UniProt Q13705 19-134, looked up)
chain: SGRGEAETRECIYYNANWELERTNQSGLERCEGEQDKRLHCYASWANSSGTIELVKKGCWLDDFNCYDRQECVATEENPQVYFCCCEGNFCNERFTHLPEAGGPEVTYEPPPTAPT
notes: as for B3
B6: ActRIIB(L79D 20-134)-hFc (Fc fusion)
chain: GRGEAETRECIYYNANWELERTNQSGLERCEGEQDKRLHCYASWRNSSGTIELVKKGCWDDDFNCYDRQECVATEENPQVYFCCCEGNFCNERFTHLPEAGGPEVTYEPPPTAPTGGGTHTCPPCPAPELLGGPSVFLFPPKPKDTLMISRTPEVTCVVVDVSHEDPEVKFNWYVDGVEVHNAKTKPREEQYNSTYRVVSVLTVLHQDWLNGKEYKCKVSNKALPVPIEKTISKAKGQPREPQVYTLPPSREEMTKNQVSLTCLVKGFYPSDIAVEWESNGQPENNYKTTPPVLDSDGSFFLYSKLTVDKSRWQQGNVFSCSVMHEALHNHYTQKSLSLSPGK
notes: also called GDF Trap

How the values were obtained:
Activin A [1] = molecular target: T1, Activin A; assay: BiaCore; receptor-Fc captured by anti-hFc antibody, ligand injected
Experimental: (§1) Binding of certain ActRIIB-Fc proteins and GDF Traps to ligands was tested in a BiaCore™ assay.
(§2) The ActRIIB-Fc variants or wild-type protein were captured onto the system using an anti-hFc antibody. Ligands were injected and flowed over the captured receptor proteins.

Activin A [2] = molecular target: T1, Activin A; assay: Biacore; steady-state affinity fit
Experimental: (§3) The affinity of GDF Traps and other ActRIIB-hFc proteins for several ligands was evaluated in vitro with a BiacoreTM instrument. Kd values were obtained by steady-state affinity fit due to the very rapid association and dissociation of the complex, which prevented accurate determination of kₒₙ and koff.

Activin B = molecular target: T2, Activin B; assay: Biacore; steady-state affinity fit
Experimental: as §3

Activin A [3] = molecular target: T1, Activin A; assay: cell-based or functional assay
[4] = molecular target: B4; assay: cell-based or functional assay
[5] = molecular target: B4; assay: Biacore; steady-state affinity fit
Experimental: as §3

[6] = molecular target: B4; assay: BiaCore; ligand coupled, receptor flowed over; WT (64R) construct; ligand coupled to the device, receptor flowed over (data from WO2006/012627)
[7] = molecular target: B5; assay: BiaCore; ligand coupled, receptor flowed over; +15tail construct; ligand coupled to the device, receptor flowed over (data from WO2006/012627)
ActRIIB(20-134)-hFc [8] = molecular target: B1; assay: BiaCore; receptor-Fc captured by anti-hFc antibody, ligand injected
Experimental: as §1, §2

ActRIIB(20-134)-hFc [9] = molecular target: B1; assay: Biacore; steady-state affinity fit
Experimental: as §3

Activin A [10] = molecular target: T1, Activin A; assay: BiaCore; ligand coupled, receptor flowed over; ligand coupled to the device, receptor flowed over (data from WO2006/012627)
[11] = molecular target: B4; assay: BiaCore; receptor-Fc captured by anti-hFc antibody, ligand injected
Experimental: as §1, §2

[12] = molecular target: T3, Growth and Differentiation Factor-8 …; assay: as above
Experimental: as §1, §2

Binder: B1
- Kd (Activin A [1]): 0.0268 nM
- koff (Activin A [1]): 0.000159 s⁻¹
- kon (Activin A [1]): 5.94e+06 M⁻¹ s⁻¹
- Kd (Activin A [2]): 0.016 nM
- Kd (Activin B): 0.012 nM
- IC50 (ng/mL), A-204 reporter gene assay, conditioned media (Activin A [3]): 22 ng/mL
- IC50 (ng/mL), A-204 reporter gene assay, conditioned media [4]: 45 ng/mL

Binder: B2
- Kd (Activin A [2]): 0.018 nM
- Kd [5]: 0.031 nM
- Kd (Activin B): 0.012 nM

Binder: B3
- Kd [6]: 86 nM

Binder: B4
- Kd [7]: 19 nM
- Kd (ActRIIB(20-134)-hFc [8]): 0.0842 nM
- koff (ActRIIB(20-134)-hFc [8]): 0.000113 s⁻¹
- kon (ActRIIB(20-134)-hFc [8]): 1.34e+06 M⁻¹ s⁻¹
- Kd (ActRIIB(20-134)-hFc [9]): 0.036 nM

Binder: B5
- Kd (Activin A [10]): ~26 nM

Binder: B6
- Kd [11]: 0.655 nM
- koff [11]: 0.000439 s⁻¹
- Kd [12]: 2.15 nM
- koff [12]: 0.00083 s⁻¹
- Kd (Activin A [2]): 13.5 nM
- Kd [5]: 0.123 nM
- Kd (Activin B): 0.788 nM

Source: patent publication US20160326228A1 (ACCELERON PHARMA, published 2016)
